These results are taken from patent US20250352661A1 (MYTHIC THERAPEUTICS, published 2025).

The chains are these.
B1: MYT9508 (antibody, V domains shown)
VH: EVQLVESGGGLVQPGGSLRLSCTASGFSFSSSHWICWVRQAPGKGLEWVGCIYAGSIGSTYYASWAKGRFTISRDTSKNTVYLQMNSLRAEDTAVYYCARAPNDIYNYYFNLWGQGTLVTVSS
VL: EIVMTQSPSTLSASVGDRVIITCQDSENIYNYLAWYQQKPGKAPKLLIYYASTLASGVPSRFSGSGSGAEFTLTISSLQPDDFATYYCQSGYVSKSSTFGQGTKLTVL
notes: also called hu29F1 VL A25D
B2: MYT9514 (antibody, V domains shown)
VH: EVQLVESGGGLVQPGGSLRLSCTASGFSFSSSHWICWVRQAPGKGLEWVGCIYAGSIGSTYYASWAKGRFTISRDTSKNTVYLQMNSLRAEDTAVYYCARAPNDIYNYYFNLWGQGTLVTVSS
VL: EIVMTQSPSTLSASVGDRVIITCQASENIYDYLAWYQQKPGKAPKLLIYYASTLASGVPSRFSGSGSGAEFTLTISSLQPDDFATYYCQSGYVSKSSTFGQGTKLTVL
notes: Humanized 29F1 with VL N31D; captured by anti-human Fc sensor
B3: MYT9509 (antibody, V domains shown)
VH: EVQLVESGGGLVQPGGSLRLSCTASGFSFSSSHWICWVRQAPGKGLEWVGCIYAGSIGSTYYASWAKGRFTISRDTSKNTVYLQMNSLRAEDTAVYYCARAPNDIYNYYFNLWGQGTLVTVSS
VL: EIVMTQSPSTLSASVGDRVIITCQADENIYNYLAWYQQKPGKAPKLLIYYASTLASGVPSRFSGSGSGAEFTLTISSLQPDDFATYYCQSGYVSKSSTFGQGTKLTVL
notes: Humanized 29F1 with VL S26D; captured by anti-human Fc sensor
B4: MYT9519 (antibody, V domains shown)
VH: EVQLVESGGGLVQPGGSLRLSCTASGFSFSSSHWICWVRQAPGKGLEWVGCIYAGSIGSTYYASWAKGRFTISRDTSKNTVYLQMNSLRAEDTAVYYCARAPNDIYNYYFNLWGQGTLVTVSS
VL: EIVMTQSPSTLSASVGDRVIITCQASENIYNYLAWYQQKPGKAPKLLIYYDSTLASGVPSRFSGSGSGAEFTLTISSLQPDDFATYYCQSGYVSKSSTFGQGTKLTVL
notes: also called hu29F1 VL A51D
B5: MYT9516 (antibody, V domains shown)
VH: EVQLVESGGGLVQPGGSLRLSCTASGFSFSSSHWICWVRQAPGKGLEWVGCIYAGSIGSTYYASWAKGRFTISRDTSKNTVYLQMNSLRAEDTAVYYCARAPNDIYNYYFNLWGQGTLVTVSS
VL: EIVMTQSPSTLSASVGDRVIITCQASENIYNYDAWYQQKPGKAPKLLIYYASTLASGVPSRFSGSGSGAEFTLTISSLQPDDFATYYCQSGYVSKSSTFGQGTKLTVL
notes: also called hu29F1 VL L33D
B6: MYT9524 (antibody, V domains shown)
VH: EVQLVESGGGLVQPGGSLRLSCTASGFSFSSSHWICWVRQAPGKGLEWVGCIYAGSIGSTYYASWAKGRFTISRDTSKNTVYLQMNSLRAEDTAVYYCARAPNDIYNYYFNLWGQGTLVTVSS
VL: EIVMTQSPSTLSASVGDRVIITCQASENIYNYLAWYQQKPGKAPKLLIYYASTLADGVPSRFSGSGSGAEFTLTISSLQPDDFATYYCQSGYVSKSSTFGQGTKLTVL
notes: Humanized 29F1 with VL S56D; captured by anti-human Fc sensor
B7: MYT9530 (antibody, V domains shown)
VH: EVQLVESGGGLVQPGGSLRLSCTASGFSFSSSHWICWVRQAPGKGLEWVGCIYAGSIGSTYYASWAKGRFTISRDTSKNTVYLQMNSLRAEDTAVYYCARAPNDIYNYYFNLWGQGTLVTVSS
VL: EIVMTQSPSTLSASVGDRVIITCQASENIYNYLAWYQQKPGKAPKLLIYYASTLASGVPSRFSGSGSGAEFTLTISSLQPDDFATYYCQSGYVDKSSTFGQGTKLTVL
notes: Humanized 29F1 with VL S94D; captured by anti-human Fc sensor
B8: MYT9532 (antibody, V domains shown)
VH: EVQLVESGGGLVQPGGSLRLSCTASGFSFSSSHWICWVRQAPGKGLEWVGCIYAGSIGSTYYASWAKGRFTISRDTSKNTVYLQMNSLRAEDTAVYYCARAPNDIYNYYFNLWGQGTLVTVSS
VL: EIVMTQSPSTLSASVGDRVIITCQASENIYNYLAWYQQKPGKAPKLLIYYASTLASGVPSRFSGSGSGAEFTLTISSLQPDDFATYYCQSGYVSKDSTFGQGTKLTVL
notes: also called hu29F1 VL S96D
B9: MYT9533 (antibody, V domains shown)
VH: EVQLVESGGGLVQPGGSLRLSCTASGFSFSSSHWICWVRQAPGKGLEWVGCIYAGSIGSTYYASWAKGRFTISRDTSKNTVYLQMNSLRAEDTAVYYCARAPNDIYNYYFNLWGQGTLVTVSS
VL: EIVMTQSPSTLSASVGDRVIITCQASENIYNYLAWYQQKPGKAPKLLIYYASTLASGVPSRFSGSGSGAEFTLTISSLQPDDFATYYCQSGYVSKSDTFGQGTKLTVL
notes: also called hu29F1 VL S97D
B10: MYT9525 (antibody, V domains shown)
VH: EVQLVESGGGLVQPGGSLRLSCTASGFSFSSSHWICWVRQAPGKGLEWVGCIYAGSIGSTYYASWAKGRFTISRDTSKNTVYLQMNSLRAEDTAVYYCARAPNDIYNYYFNLWGQGTLVTVSS
VL: EIVMTQSPSTLSASVGDRVIITCQASENIYNYLAWYQQKPGKAPKLLIYYASTLASGVPSRFSGSGSGAEFTLTISSLQPDDFATYYCDSGYVSKSSTFGQGTKLTVL
notes: also called hu29F1 VL Q89D
B11: MYT9520 (antibody, V domains shown)
VH: EVQLVESGGGLVQPGGSLRLSCTASGFSFSSSHWICWVRQAPGKGLEWVGCIYAGSIGSTYYASWAKGRFTISRDTSKNTVYLQMNSLRAEDTAVYYCARAPNDIYNYYFNLWGQGTLVTVSS
VL: EIVMTQSPSTLSASVGDRVIITCQASENIYNYLAWYQQKPGKAPKLLIYYADTLASGVPSRFSGSGSGAEFTLTISSLQPDDFATYYCQSGYVSKSSTFGQGTKLTVL
notes: Humanized 29F1 with VL S52D; captured by anti-human Fc sensor
B12: MYT9522 (antibody, V domains shown)
VH: EVQLVESGGGLVQPGGSLRLSCTASGFSFSSSHWICWVRQAPGKGLEWVGCIYAGSIGSTYYASWAKGRFTISRDTSKNTVYLQMNSLRAEDTAVYYCARAPNDIYNYYFNLWGQGTLVTVSS
VL: EIVMTQSPSTLSASVGDRVIITCQASENIYNYLAWYQQKPGKAPKLLIYYASTDASGVPSRFSGSGSGAEFTLTISSLQPDDFATYYCQSGYVSKSSTFGQGTKLTVL
notes: Humanized 29F1 with VL L54D; captured by anti-human Fc sensor
B13: MYT9526 (antibody, V domains shown)
VH: EVQLVESGGGLVQPGGSLRLSCTASGFSFSSSHWICWVRQAPGKGLEWVGCIYAGSIGSTYYASWAKGRFTISRDTSKNTVYLQMNSLRAEDTAVYYCARAPNDIYNYYFNLWGQGTLVTVSS
VL: EIVMTQSPSTLSASVGDRVIITCQASENIYNYLAWYQQKPGKAPKLLIYYASTLASGVPSRFSGSGSGAEFTLTISSLQPDDFATYYCQDGYVSKSSTFGQGTKLTVL
notes: also called hu29F1 VL S90D
B14: MYT9511 (antibody, V domains shown)
VH: EVQLVESGGGLVQPGGSLRLSCTASGFSFSSSHWICWVRQAPGKGLEWVGCIYAGSIGSTYYASWAKGRFTISRDTSKNTVYLQMNSLRAEDTAVYYCARAPNDIYNYYFNLWGQGTLVTVSS
VL: EIVMTQSPSTLSASVGDRVIITCQASEDIYNYLAWYQQKPGKAPKLLIYYASTLASGVPSRFSGSGSGAEFTLTISSLQPDDFATYYCQSGYVSKSSTFGQGTKLTVL
notes: Humanized 29F1 with VL N28D; captured by anti-human Fc sensor
B15: MYT9510 (antibody, V domains shown)
VH: EVQLVESGGGLVQPGGSLRLSCTASGFSFSSSHWICWVRQAPGKGLEWVGCIYAGSIGSTYYASWAKGRFTISRDTSKNTVYLQMNSLRAEDTAVYYCARAPNDIYNYYFNLWGQGTLVTVSS
VL: EIVMTQSPSTLSASVGDRVIITCQASDNIYNYLAWYQQKPGKAPKLLIYYASTLASGVPSRFSGSGSGAEFTLTISSLQPDDFATYYCQSGYVSKSSTFGQGTKLTVL
notes: Humanized 29F1 with VL E27D; captured by anti-human Fc sensor
B16: MYT7912 (antibody, V domains shown)
VH: QQQLVESGGGLVKPGASLTLTCKASGFSFSGSYWICWVRQAPGKGLEWIGCINGGSLDITYYASWAKGRFTISKASSTTVTLQKTSLTAADTATYFCASHTSYTAYGNFYFNLWGPGTLVTVSS
VL: AQVLTQTASPVSAAVGGTVTINCQSSQSVLNNNWLAWYQQKPGQPPKLLIYDASSLASGVPSRFKGSGSGTQFTLTISDLESDDAATYYCQGEFSCGSADCNAFGGGTEVVVKG
notes: rabbit 24D9 VH D100H; chimeric, human constant regions

For the first assay, the target named is T1, Human LRRC15 Protein, His Tag, Acro Biosystems (human, UniProt Q8TF66 22-538, limits assumed).
T1 construct: not shown: His tag
T1 sequence (looked up): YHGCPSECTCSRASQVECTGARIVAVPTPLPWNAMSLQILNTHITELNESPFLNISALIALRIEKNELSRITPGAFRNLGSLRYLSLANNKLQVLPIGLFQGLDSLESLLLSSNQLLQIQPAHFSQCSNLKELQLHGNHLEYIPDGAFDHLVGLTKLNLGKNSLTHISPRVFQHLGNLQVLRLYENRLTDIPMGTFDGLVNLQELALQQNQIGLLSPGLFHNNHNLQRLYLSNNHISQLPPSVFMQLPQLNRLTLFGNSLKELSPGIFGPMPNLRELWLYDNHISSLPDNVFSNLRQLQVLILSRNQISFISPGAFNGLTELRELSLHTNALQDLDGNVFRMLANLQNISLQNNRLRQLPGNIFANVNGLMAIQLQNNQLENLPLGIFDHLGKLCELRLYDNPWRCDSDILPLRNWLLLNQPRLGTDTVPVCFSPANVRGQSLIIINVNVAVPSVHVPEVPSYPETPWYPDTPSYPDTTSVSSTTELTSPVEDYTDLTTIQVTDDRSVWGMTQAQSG
In words: BLI; dissociation pH 7.4 black, pH 5.4 grey [D00022 FIG. 5B]. How it is done: The resulting diluted supernatants were then captured on an anti-human Fc sensor (Forte Bio). A baseline was established using 1×PBST (50 mM Potassium Phosphate Buffer+150 mM NaCl+0.05% Tween 20) pH 7.4, and the […] was associated with 50 nM of LRRC15 (Human LRRC15 Protein, His Tag, Acro Biosystems) in 1×PBST pH 7.4 for 120 sec to generate an association curve. In the dissociation phase, the antibody-antigen complex on the sensor was exposed to 1×PBST pH 7.4 or pH 5.4, for 300 sec. Association and dissociation phase curves were examined for the starting ABPC antibody (with no substitutions) and each corresponding antibody variant at pH 5.4 and pH 7.4 to inform on two criteria: a) enhanced dissociation (i.e., higher koff values) at pH 5.4 due to histidine substitution compared to the starting ABPC, (with no substitutions), and b) reduced dissociation at pH 7.4 (i.e., lower koff values) compared to pH 5.4 in the antibody variant itself and with the starting ABPC (with no substitutions).
Briefly, CDRs in the 15G7 light chain were identified using the methods described in Example 9, and for each CDR, residues falling under either or both Kabat and IMGT CDR definitions were called as CDR residues. To generate pH-dependent sequence variants, individual amino acid residues within the light chain CDRs were systematically substituted with a histidine, one at a time (rabbit, MYT6122-6151). Desirable mutations were transferred to a humanized framework MYT8413-8487). After allowing for four days of protein expression, cell culture supernatants were collected, quantified by SDS-PAGE analysis, and the pH dependence of the variant was evaluated using biolayer interferometry (BLI) on an Octet RED 96e instrument (as described in Example 9). […]
On the technique in general: In BLI a coated tip is dipped into the sample, and binding shifts an interference pattern.
For B1, the binding result was “binds”.

Take B2: the binding result is “binds”.

On to B3, for which the binding result was “binds”.

In the case of B4, the binding result is on record as “binds”.

Turning to B5, the binding result is given as “binds”.

For the molecule B6, the binding result is reported as “binds”.

As for B7, the binding result is on record as “binds”.

As to B8, the binding result was “binds”.

Consider B9, for which the binding result is “binds”.

Regarding B10, the binding result is recorded as “binds”.

B11: the binding result is given as “binds”.

In the case of B12, the binding result is recorded as “binds”.

For the molecule B13, the binding result is “binds”.

In the case of B14, the binding result is reported as “binds”.

Turning to B15, the binding result is “binds”.

For a further assay, the target named is T2, Human LRRC15 Protein, His Tag (Acro Biosystems) (human, UniProt Q8TF66 22-538, limits assumed).
T2 construct: Bought protein with His tag
T2 sequence (looked up): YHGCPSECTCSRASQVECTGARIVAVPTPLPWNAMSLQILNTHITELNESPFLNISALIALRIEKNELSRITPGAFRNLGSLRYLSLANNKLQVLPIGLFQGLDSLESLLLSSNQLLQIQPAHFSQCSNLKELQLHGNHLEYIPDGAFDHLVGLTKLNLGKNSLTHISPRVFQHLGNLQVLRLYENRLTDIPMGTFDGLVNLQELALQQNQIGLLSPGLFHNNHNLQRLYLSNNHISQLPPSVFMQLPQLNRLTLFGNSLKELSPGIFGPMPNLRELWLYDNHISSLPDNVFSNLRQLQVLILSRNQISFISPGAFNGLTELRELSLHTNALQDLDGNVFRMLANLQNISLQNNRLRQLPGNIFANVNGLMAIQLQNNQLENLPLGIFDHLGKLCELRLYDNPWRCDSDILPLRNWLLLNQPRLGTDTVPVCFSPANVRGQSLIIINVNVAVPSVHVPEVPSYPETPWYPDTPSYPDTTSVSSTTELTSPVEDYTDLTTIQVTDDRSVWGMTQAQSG
Briefly: BLI; dissociation pH 7.4 black, pH 5.4 grey [2/2); D00014 FIG. 2B (2/2].
B16: the binding result is “no binding (tested: 50 nM LRRC15)”.
